Experimental data reported in patent US20090188009A1, “HEAT SHOCK RNA FROM VARIOUS SPECIES AND ITS USE IN ACTIVATION OF HEAT SHOCK TRANSCRIPTION FACTOR, IN TREATMENT OF VARIOUS DISEASES IN ANIMALS AND IN GENERATION OF STRESS-RESISTANT PLANTS” (New York University, published 2009).

Assays:
[1] = molecular target: purified recombinant mouse HSF1 (heat shock transcription factor 1), released from GST-HSF1 by thrombin cleavage (mouse) (UniProt P38532); experiment: cell-based or functional assay
HSF1 = HSF1 (Mus musculus, UniProt P38532 P38532:1-525); experiment: EMSA; trimeric HSF1 activated by eEF1A plus HSR1 (BHK, HeLa or T3 sense transcript); about 5% of HSF1 activated; 1.5 mM MgCl2, 2 mM DTT; conditions: tags: expressed as N-terminal GST fusion from pGex-2T in E. coli, thrombin cleaved; chain copies: 3; label: 32P end
Description: cDNAs of HSR1 were cloned from both HeLa and BHK cells (see Methods), and the coding strand was identified in a functional assay (FIG. 5A). As shown in the upper panel of FIG. 5A, the sense (T3) and antisense (T7) HSR1s were transcribed in vitro by T3 and T7 RNA polymerases, respectively, from PCR fragments carrying T3 or T7 promoters on each side of HSR1. The resulting synthetic RNAs were tested in the minimal HSF1 activating system (FIG. 5A, lower panel). For the reconstitution experiment shown in FIG. 5A, recombinant mouse HSF1 was used along with eEF1A purified from rat liver (as described above). HSR1 isolated from heat-shocked BHK or HeLa cells (lanes 7, 8) and HSR1-T3 (lane 10) activated HSF when added together with purified eEF1A. However, neither component alone was capable of activating HSF1 (lanes 2-6). The slight stimulating effect of isolated eEF1A (lane 2) on HSF1 activation results from the residual amount of co-purified HSR1, and could be eliminated by RNAse A treatment. In FIG. 5A, quantitation of HSF1 activation is presented as the fold increase relative to a background control. Under these conditions, about 5% of the total HSF1 was activated.

Chain of HSF1 (P38532 whole entry, the tested form may be a part, one chain of several): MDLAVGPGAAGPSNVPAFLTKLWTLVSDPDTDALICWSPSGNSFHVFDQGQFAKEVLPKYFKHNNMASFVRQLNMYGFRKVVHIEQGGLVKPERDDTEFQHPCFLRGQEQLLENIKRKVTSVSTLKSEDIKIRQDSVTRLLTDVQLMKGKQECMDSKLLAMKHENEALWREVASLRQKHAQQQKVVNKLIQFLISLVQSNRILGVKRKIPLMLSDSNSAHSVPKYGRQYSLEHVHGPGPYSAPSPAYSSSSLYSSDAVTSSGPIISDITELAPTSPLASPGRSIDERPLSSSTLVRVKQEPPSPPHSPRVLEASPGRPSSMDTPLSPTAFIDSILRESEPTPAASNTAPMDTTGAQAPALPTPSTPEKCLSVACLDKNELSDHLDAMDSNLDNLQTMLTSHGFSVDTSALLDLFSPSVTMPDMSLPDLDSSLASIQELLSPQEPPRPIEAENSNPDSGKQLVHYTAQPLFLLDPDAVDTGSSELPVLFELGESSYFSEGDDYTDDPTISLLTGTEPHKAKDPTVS
Chain of purified recombinant mouse HSF1 (heat shock transcription factor 1), released from GST-HSF1 by thrombin cleavage (mouse) (P38532 other isoform, or with tags, fused parts or gaps limits assumed): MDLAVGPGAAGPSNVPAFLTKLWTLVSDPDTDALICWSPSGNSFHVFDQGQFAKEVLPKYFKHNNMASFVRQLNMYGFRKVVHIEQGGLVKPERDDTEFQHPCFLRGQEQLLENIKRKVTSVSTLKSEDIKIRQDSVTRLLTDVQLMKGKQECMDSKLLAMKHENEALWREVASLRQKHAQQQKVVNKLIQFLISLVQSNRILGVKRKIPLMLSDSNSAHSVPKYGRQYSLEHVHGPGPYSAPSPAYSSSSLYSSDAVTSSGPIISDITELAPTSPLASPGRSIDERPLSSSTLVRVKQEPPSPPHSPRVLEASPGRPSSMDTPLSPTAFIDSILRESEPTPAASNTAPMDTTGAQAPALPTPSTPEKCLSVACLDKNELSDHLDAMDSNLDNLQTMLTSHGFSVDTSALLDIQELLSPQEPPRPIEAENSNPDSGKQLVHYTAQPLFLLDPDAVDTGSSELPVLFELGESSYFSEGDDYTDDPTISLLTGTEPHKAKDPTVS

HSF1 activation (DNA binding to HSE, EMSA) in the reconstituted system [1] | Molecule | binding result (HSF1)
5% | eEF1A purified from rat liver (from UniProt P62630 2-462) | 
 | HSE oligonucleotide (dsDNA) DNA 1: GCCTCGAATGTTCGCGAAGTTTCG DNA 2: CGAAACTTCGCGAACATTCGAGGC | binds
